To fix the notation:
B1: RecD subunit of E. coli RecBCD (enzyme, UniProt P04993 1-608, looked up)
chain: MKLQKQLLEAVEHKQLRPLDVQFALTVAGDEHPAVTLAAALLSHDAGEGHVCLPLSRLENNEASHPLLATCVSEIGELQNWEECLLASQAVSRGDEPTPMILCGDRLYLNRMWCNERTVARFFNEVNHAIEVDEALLAQTLDKLFPVSDEINWQKVAAAVALTRRISVISGGPGTGKTTTVAKLLAALIQMADGERCRIRLAAPTGKAAARLTESLGKALRQLPLTDEQKKRIPEDASTLHRLLGAQPGSQRLRHHAGNPLHLDVLVVDEASMIDLPMMSRLIDALPDHARVIFLGDRDQLASVEAGAVLGDICAYANAGFTAERARQLSRLTGTHVPAGTGTEAASLRDSLCLLQKSYRFGSDSGIGQLAAAINRGDKTAVKTVFQQDFTDIEKRLLQSGEDYIAMLEEALAGYGRYLDLLQARAEPDLIIQAFNEYQLLCALREGPFGVAGLNERIEQFMQQKRKIHRHPHSRWYEGRPVMIARNDSALGLFNGDIGIALDRGQGTRVWFAMPDGNIKSVQPSRLPEHETTWAMTVHKSQGSEFDHAALILPSQRTPVVTRELVYTAVTRARRRLSLYADERILSAAIATRTERRSGLAALFSSRE
B2: RecC subunit of E. coli RecBCD (natural protein, UniProt P07648 1-1122, looked up)
chain: MLRVYHSNRLDVLEALMEFIVERERLDDPFEPEMILVQSTGMAQWLQMTLSQKFGIAANIDFPLPASFIWDMFVRVLPEIPKESAFNKQSMSWKLMTLLPQLLEREDFTLLRHYLTDDSDKRKLFQLSSKAADLFDQYLVYRPDWLAQWETGHLVEGLGEAQAWQAPLWKALVEYTHQLGQPRWHRANLYQRFIETLESATTCPPGLPSRVFICGISALPPVYLQALQALGKHIEIHLLFTNPCRYYWGDIKDPAYLAKLLTRQRRHSFEDRELPLFRDSENAGQLFNSDGEQDVGNPLLASWGKLGRDYIYLLSDLESSQELDAFVDVTPDNLLHNIQSDILELENRAVAGVNIEEFSRSDNKRPLDPLDSSITFHVCHSPQREVEVLHDRLLAMLEEDPTLTPRDIIVMVADIDSYSPFIQAVFGSAPADRYLPYAISDRRARQSHPVLEAFISLLSLPDSRFVSEDVLALLDVPVLAARFDITEEGLRYLRQWVNESGIRWGIDDDNVRELELPATGQHTWRFGLTRMLLGYAMESAQGEWQSVLPYDESSGLIAELVGHLASLLMQLNIWRRGLAQERPLEEWLPVCRDMLNAFFLPDAETEAAMTLIEQQWQAIIAEGLGAQYGDAVPLSLLRDELAQRLDQERISQRFLAGPVNICTLMPMRSIPFKVVCLLGMNDGVYPRQLAPLGFDLMSQKPKRGDRSRRDDDRYLFLEALISAQQKLYISYIGRSIQDNSERFPSVLVQELIDYIGQSHYLPGDEALNCDESEARVKAHLTCLHTRMPFDPQNYQPGERQSYAREWLPAASQAGKAHSEFVQPLPFTLPETVPLETLQRFWAHPVRAFFQMRLQVNFRTEDSEIPDTEPFILEGLSRYQINQQLLNALVEQDDAERLFRRFRAAGDLPYGAFGEIFWETQCQEMQQLADRVIACRQPGQSMEIDLACNGVQITGWLPQVQPDGLLRWRPSLLSVAQGMQLWLEHLVYCASGGNGESRLFLRKDGEWRFPPLAAEQALHYLSQLIEGYREGMSAPLLVLPESGGAWLKTCYDAQNDAMLDDDSTLQKARTKFLQAYEGNMMVRGEGDDIWYQRLWRQLTPETMEAIVEQSQRFLLPLFRFNQS

Experiment [1] addresses B2. Kind of experiment: AUC.
The target of experiment [2] is T1, RecB subunit of E. coli RecBCD (134 kDa) (E. coli, UniProt P08394 1-1180).
T1 sequence (looked up): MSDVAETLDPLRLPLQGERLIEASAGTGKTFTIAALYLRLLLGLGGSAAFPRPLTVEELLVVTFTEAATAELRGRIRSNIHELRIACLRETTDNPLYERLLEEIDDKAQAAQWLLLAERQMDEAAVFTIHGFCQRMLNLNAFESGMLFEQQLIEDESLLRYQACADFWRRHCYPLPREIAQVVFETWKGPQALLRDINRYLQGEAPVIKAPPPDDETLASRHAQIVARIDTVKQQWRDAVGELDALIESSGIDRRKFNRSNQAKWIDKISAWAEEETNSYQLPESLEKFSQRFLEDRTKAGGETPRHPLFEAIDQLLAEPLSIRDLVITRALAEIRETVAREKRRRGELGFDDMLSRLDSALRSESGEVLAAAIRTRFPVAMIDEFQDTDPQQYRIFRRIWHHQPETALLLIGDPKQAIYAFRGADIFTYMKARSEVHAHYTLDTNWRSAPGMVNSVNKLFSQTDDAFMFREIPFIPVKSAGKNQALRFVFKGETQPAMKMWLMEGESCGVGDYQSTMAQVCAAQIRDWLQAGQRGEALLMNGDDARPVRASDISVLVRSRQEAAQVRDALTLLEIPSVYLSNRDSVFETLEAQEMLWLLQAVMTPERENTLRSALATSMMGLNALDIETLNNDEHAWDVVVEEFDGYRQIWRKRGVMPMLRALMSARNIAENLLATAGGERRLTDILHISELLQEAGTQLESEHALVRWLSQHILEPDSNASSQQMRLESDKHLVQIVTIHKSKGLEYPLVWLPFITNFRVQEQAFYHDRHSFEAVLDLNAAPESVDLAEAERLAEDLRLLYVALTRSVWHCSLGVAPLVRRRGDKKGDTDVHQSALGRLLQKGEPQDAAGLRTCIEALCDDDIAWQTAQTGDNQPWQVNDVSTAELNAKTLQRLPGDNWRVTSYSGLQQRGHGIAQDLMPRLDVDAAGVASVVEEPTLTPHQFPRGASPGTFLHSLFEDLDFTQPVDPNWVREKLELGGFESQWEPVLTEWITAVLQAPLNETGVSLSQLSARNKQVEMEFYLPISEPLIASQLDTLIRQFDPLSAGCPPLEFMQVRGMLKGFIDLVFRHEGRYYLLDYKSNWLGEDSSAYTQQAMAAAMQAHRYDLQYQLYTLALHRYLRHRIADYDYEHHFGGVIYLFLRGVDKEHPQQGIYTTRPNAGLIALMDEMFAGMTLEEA
Kind of experiment: AUC.

With B1, the binding result in experiment [1] and in experiment [2] was “binds” throughout.
Regarding B2, the binding result in experiment [2] was “binds”.
